# Measured values taken from PMC2175313.
# Assays:
# C.PvuII [1] = experiment: competition
# C.PvuII [2] = experiment: EMSA
substance,measurement,setting,value
WWRR C-box 126-mer (OL intact),binding signal (% loss of shifted WWWW band),C.PvuII [1],95
"WWWW C-box 126-mer (symmetrized, spacer TGTA)",K half,C.PvuII [2],200 nM
